Test results as given in the DeepSol protein solubility set.

Assay: soluble on expression in E. coli; label from the status in PepcDB or PDB records

| Sequence | soluble on expression in E. coli |
| --- | --- |
| MPDSLKSSIGYSRRFRLFRRGEVTVLEVMAGQKAYPDTLRYLLVPEGRPQPSGFVGYTVIRTPVKRIAVFSTTHIGFLDMLGRSDGIIGVSRPEFVNTPAVRSRIRSGAIKAIGMPFSPDVEALLNLEPDLVIAPALPAARKTDYQALVQAGIPVLVVAEWLEPSPLGRAEWIKLFGALVGKEKLARERFAAIESSYLKIAALSRNLPNRPTVLTGLPVKDAWYVPTGGSYVAAMLRDAGASYHWRDLPGTGSVPLTIEAVWPVALEAEYWLNTGTVSTLDELLAVDSRFGQMRSVRERRVWNNNRLVNAAGGNAYWESGVVRPDLILKDLVMILHPGLLRAHGIGEGELTFFQEVKLEHHHHHH | not soluble |
| GSDSAITLWQFLLQLLQKPQNKHMICWTSNDGQFKLLQAEEVARLWGIRKNKPNMNYDKLSRALRYYYVKNIIKKVNGQKFVYKFVSYPEILNMDPMTVGRIEGDCESLNFSEVSSSSKDVENGGKDKPPQPGAKTSSRNDYIHSGLYSSFTLNSLN | soluble |
| MDLHELTARLHAIRDRNDWRQFHSPKNLAMAASVEMAELVEIFQWLTEDQSRTLSAEQLEHAGQEVGDIVLYLLLFCGETGLDLEQVVRAKLADCERRFLP | soluble |
| MFKPELLSPAGTLKNMRYAFAYGADAVYAGQPRYSLRVRNNDFKMENLATGIEEAHALGKKLYVVSNIAPHNAKLKTYIKDMEPVVAMKPDALIMSDPGLIMMVREAFPEQVVHLSVQANAINWASVKFWQTQGIKRVILSRELSLDEIEEIRQRCPDIELEVFVHGALCMAYSGRCLLSGYINKRDPNQGTCTNACRWKYDVHEAQQTDSGDIIATPNAVQIETPTTLGAGAPTEQIFLLQEANRPGEYMPAFEDEHGTYIMNSKDLRAIQHVERLAKMGIDSLKIEGRTKSFYYVARTAQLYRQAIDDAASGKSFDRSLMNQLEGLAHRGYTEGFLRRHVHDEYQNYDYGYSVSDTQQFVGELTGKRNLAGLAEIEVKNKFSVGDSVELMTPQGNISLTIEQLENRKAEAVEAGLGSGHSVYLPVPKEVDLNHGILLRNLPQGQDTRNPHEAG | not soluble |
| MPILNLNNFLAALGNTPDYGRLFARAEHLAQVQKHLLNAVPFQLRNQCTVGQYTADGLLVIYAGNGTTATRLRHLAPSIRQKMNNAGVKVENIRFSIQPQLHSLESGNVREITRSLSQTAIEHLDKLSDSLPAGSPLQSSLAALLANSRRK | not soluble |
| GANNDMPVEQILEAELAVDPKIDTYIDAQKDPVTNICQAADKQLFTLVEWAKRIPHFTELPLEDQVILLRAGWNELLIAGFSHRSIMAKDGILLATGLHVHRSSAHQAGVGTIFDRVLTELVAKMRDMKMDKTELGCLRAVVLFNPDAKGLTAVQEVEQLREKVYASLEEYTKSRYPEEPGRFAKLLLRLPALRSIGLKCLEHLFFFKLIGDQPIDTFLMEMLENPSPAT | soluble |
| MIGYFIITGFAAATLALSTCNLKKVRKPPPATPAKPPAPQKTLKVAPRAAPPRKKKEIFLEEHTPPSTDTDEVSTIPPAEQIRIVENHRRRIGVRPRAGNRVYKKTPSSELVKVENKKSVEKNCKVVKTESGEAEACEKKEDKRNVEKNKKKEKESKEKSKNCYEKKELKKNGSESYAYKKYNKQKNEHIEILVKKTVLRQIRF | not soluble |
| MSLCLPTIRKIAIIGAGPSGLVTAKALLAEKAFDQVTLFERRGSPGGVWNYTSTLSNKLPVPSTNPILTTEPIVGPAALPVYPSPLYRDLQTNTPIELMGYCDQSFKPQTLQFPHRHTIQEYQRIYAQPLLPFIKLATDVLDIEKKDGSWVVTYKGTKAGSPISKDIFDAVSICNGHYEVPYIPNIKGLDEYAKAVPGSVLHSSLFREPELFVGESVLVVGGASSANDLVRHLTPVAKHPIYQSLLGGGDIQNESLQQVPEITKFDPTTREIYLKGGKVLSNIDRVIYCTGYLYSVPFPSLAKLKSPETKLIDDGSHVHNVYQHIFYIPDPTLAFVGLALHVVPFPTSQAQAAFLARVWSGRLKLPSKEEQLKWQDELMFSLSGANNMYHSLDYPKDATYINKLHDWCKQATPVLEEEFPSPYWGEKERSIRENMWSIRAKFFGIEPPKEGHHHHHH | soluble |
| MQQLKAKSLEMRTPQATKTAVLVIGGAEDKVHGREILRTFVARAGASKAYITIIPSASREPAIIGGRYIRIFEEMGAEKVEILDIREREQCDSSQIKASLEACTGVFLTGGDQLRLCGVLSDTAAMDIIRQRVRAGQLTLAGTSAGAAVMGHHMIAGGGSGETPNRSLVDMATGLGFIPEVIVDQHFHNRNRMGRLVSAIAAHPDRLGIGIDEDTCAVFERDGWLQVMGKGSVTIVDPTELTHTNEPLVSANEPLTVHNLRLHILSYGDRFHLYQRTVLPAVHRISS | soluble |
| MIPEEIYKILRKQRYQIDGHTAVKLCGWVRKKMLEDKNCYKSKFYGIETHRCIQCTPSVIWCQQNCIFCWRVLPRDIGIDISQIKEPKWEEPEVVYEKILAMHKRIIMGYAGVLDRVGEKKFKEALEPKHVAISLSGEPTLYPYLDELIKIFHKNGFTTFVVSNGILTDVIEKIEPTQLYISLDAYDLDSYRRICGGKKEYWESILNTLDILKEKKRTCIRTTLIRGYNDDILKFVELYERADVHFIELKSYMHVGYSQKRLKKEDMLQHDEILKLAKMLDENSSYKLIDDSEDSRVALLQNENRKINPKL | soluble |
| MGSDKIHHHHHHMKIDMRNISKSFGTNKVLEKIDLELQSGQIHALMGENGAGKSTLMNILTGLFPASTGTIYIDGEERTFSNPQEAEEFGISFIHQEMNTWPEMTVLENLFLGREIKTTFGLLNQKLMRQKALETFKRLGVTIPLDIPIGNLSVGQQQMIEIAKSLLNQLSILVMDEPTAALTDRETENLFRVIRGLKQEGVGVVYISHRMEEIFKITDFVTVMRDGVIVDTKETSLTNSDELVKKMVGRKLEDYYPEKHSEIGPVAFEVSNLCGDNFEDVSFYVRKGEILGFSGLMGAGRTEVMRTIFGIDKKKSGKVKIDDQEITITTPSQAIKQGIGFLTENRKDEGLILDFNIKDNMTLPSTKDFSKHGFFDEKTSTTFVQQLINRLYIKSGRPDLEVGNLSGGNQQKVVLAKWIGIAPKVLILDEPTRGVDVGAKREIYQLMNELADRGVPIVMVSSDLPEILGVSDRIMVMHEGRISGELSRKEADQEKVMQLATGGK | not soluble |
| MSICLIAEEGADSGALSSLAERWGLVSDPNAVMALVLTTERLELRKQDEPKLGAIFVDFVAGPMAHRRRFGGGRGEAVAKAVGIKKDYLPDVVDATAGLGRDAFVLAALGCHVRMVERNPVVAALLDDGLKRGYQDAEIGPWLRERLTLLHASSMTALRDITPPPDVVYLDPMFPHKQKSALVKKEMRVFQSLVGADDDADALLEPARALAKKRVVVKRPDYAPPLAGVPAQSMLETKSHRFDFYLPVLEHHHHHH | soluble |
| MWRLYRKTPKQLRNSVESCFKSVNSRQFSVSSFSAVAKDDKSVLKQQEVLHLLAKDQRFEERFFNQVQQTIRYFASKPNDLKKFFRKEASTDNKESSSSSDKKDSKGNKGEDNNPFNQFPGGWQQIAVSVGILLALYAFMDYQSYREISWKEFYSDFLEAGLVERLEVVDKRWVRIVSSSGKYAGQTCYFNIGSVDSFERSLGAAQHHLQYDADRQIPVLYKSEFNFKREIPNLISVAFPLLFGYYIYRMLKGGGAAGGAGRAGGGGLGGMFGGFGQSTARVINREDIKVKFADVAGCEEAKIEIMEFVNFLKNPQQYKDLGAKIPKGAILTGPPGTGKTLLAKATAGEANVPFITVSGSEFLEMFVGVGPARVRDMFSMARKNSPCILFIDEIDAVGRKRGGKGGMGGHSEQENTLNQLLVEMDGFTTDESSVIVIAATNRVDILDSALLRPGRFDRQIYVPVPDIKGRASIFRVHLGPLRTSLDKTVLSRKLAAHTPGFSGADISNVCNEAALIAARDANHEISNKHFEQAIERVVAGMEKKTQVLQKEEKKTVAYHEAGHAIAGWFLQHADPLLKVSIIPRGKGLGYAQYLPKEQYLYSKDQLLDRMCMTLGGRVAEEIFFGRITTGAQDDLQKVTQMAYSQVVKFGMSEKVGPLSFETPAPGEMAFDKPYSEATAQLIDQEVRDLVMNALRRTRDLLLEKRSDIERVALRLLEKEILNREDMIELVGKRPFVEKNTYEEMVSGTGGLDENVELPKGLENWNKESEKKKKDEEKKKNDE | not soluble |
| MKGMRGPGESRDTAMAVEQDIFDAVVMADERFHGEGYQEGYEEGSSLGIVEGKRYGMVHGAKIGSEIGCYRGFALAWKCLLHSGAGEKDSRKMKVVEALIALLQDFPYDDPTYEKLHEDLDRIRGKFRQLCSLLNVQPDFKVTPGGSGLAF | soluble |
| MGSDKIHHHHHHMSSCEIFPLISKLSAEGKRFAIVSIYKGNRLERTIVSDGRVLLGSLDRNIIEIALEALEKGKVIQKDLEDGKLVIEPIEPRPAIIVVGSGIIARFLAKLAIDMGYYVAVVGSGDVKEEDFSGVYAISNDLNLLEQMVSEDSIVIVANEGGKPYDIDALYIAMKKRARFVGLLASQKRAALMISLLVKRDIPLEEIKRRLHSPLGLDIGSKTAEEIALSILSEVVLDLRGGTGKRLQEVKNPYLLLDDALAGKIEDKCMFVPKSLSQQ | not soluble |
| MKKILLMLSLLFFTTAGFSEVSDTLVTGGYDKQAMSDAIKHARKETDKFIEVMNKKDADTFAVKAPITDHGRTEHFWLTDVTYSNGMFIGVISNDPGIVTNVEYGQEWKIKKEDISDWMYTRGDKIYGGYTIDPLLVTYPKEEADELRAKLVR | soluble |
| YDTVIRNRQTNDVNYLKRLAKKFGFSETQFMTTYQSSELAANLDEERQVVSRLKINQLPAYVVTYNEQSYVIKGVLKYKEWLDIIQQITN | not soluble |
| MGSDKIHHHHHHMKRMKGIVYGGLLSVVFVMSGCSGSQKEGRDSKEIPVEIVKVAKTVPADTRNYVGTVEEVVSSSISFQVMGNVERVLVGEGQKVREGQLLAVLDKATLENAYNASAASLRQAEDAYARMRTLHENKSLPDMKWVEVESKLEQARSMERISRKNLEDRNLYAPFGGVIGKRMVEAGENVQPGQPVFSLLRIETVNVKIAVPENEVATLGDQAAMIKVAALGGQCFEGKVTEKGIVANPISHTYEAKIRLENPSGALLPGMVCDVRLSGEESVPAITLPNNAVLIANDGGRFVWKVVDGKAKATPVRTGDLTEQGLFILEGLNEGDIVVIGGYQKISEGMRVRAL | not soluble |
| MSLKPLFGEKDESNISPITKQLTEEEASKVIAEVNGEQILYKDFYFIYSQQAAYYGLTTEDEDSLSDDTKEILNTIKKELLTQLIQQKLAKQKAKEAGYEVTKERLDEASEAIEEMIRNMAEQMKLSSPSEAESRDFLKEARDFINSELKAMRITMDEYIRDTAEYMIVTDFMEDLTKDIVVTDEEIKKYYDEQLKIQQENPEEAAYAEVQLIQPASSRVKHILIALPEEEQQEYQNLKSEGKDEEAEAYLKEKLEAIKPKAEEVLNKAKNGEDFEALIKEYGEDPGMESEQYKDGYTVTKNSGFIKSFEDASLALGVGEISDLVEGPYGYHIIKVYEKTEAKPYTQEEKKSEIESLLKSQKKTNFMNEKMKEWESASTIVRHDDEGHHHHHH | soluble |
| MLRSIICNMCNLSDESKQFEMTPPSSNLSSLFPTGRAVRNPFGKVYFVVILKGKAMVRIDGKSMLLLERTFLFLPPGHLLLRLSCTQDFLFQYLSFSFDFLSDFPLLLKADISNQVTNAPCLPMSPEDFSLIKMYYHFIYHRYLDAECPSEVIKGMLFSLVLEVCRMYSGRNISVEMSRQDKLVDGFFSLLHKYCTQERMAAFYASRLCISDKYLMRSIKKQTGQTFHYWMADFILREAKLMLRSTDLSVTEIADKLSFPNSSSFARFFRKYTGFSPVQFRNEA | not soluble |
